The target of data set [1] is T1, PBRM1 BD4 (UniProt Q86U86 496-637). Put plainly: NMR titration (1H-15N HSQC); Kd only in figure, stated similar to other dsRNAs; NMR: 0.1 mM 15N-BD, 50 mM K phosphate pH 7.0, 50 mM KCl, 2 mM DTT, 2 mM EDTA, 7% D2O, 25 C; EMSA: 50 mM K phosphate pH 7.0, 10 mM KCl, 2 mM DTT, 2 mM EDTA, 5% sucrose, on ice 1 h, gel at 4 C. The note with it: protein: recombinant, tags: His tag, TEV-cleaved. On the technique in general: In EMSA bound probe runs differently from free probe, usually more slowly.

Data set [2] concerns the target T2, PBRM1 BD2 (UniProt Q86U86 178-291). Described as above. The note with it: protein: recombinant, tags: His tag, TEV-cleaved, hairpin.
Data set [3] deals with T1, PBRM1 BD4. The data set is described as follows: NMR titration (1H-15N HSQC); NMR: 0.1 mM 15N-BD, 50 mM K phosphate pH 7.0, 50 mM KCl, 2 mM DTT, 2 mM EDTA, 7% D2O, 25 C; EMSA: 50 mM K phosphate pH 7.0, 10 mM KCl, 2 mM DTT, 2 mM EDTA, 5% sucrose, on ice 1 h, gel at 4 C. Conditions: protein: recombinant, tags: His tag, TEV-cleaved.
Data set [4] concerns the target T2, PBRM1 BD2. The description is as above. The note with it: protein: recombinant, tags: His tag, TEV-cleaved.
The target of another data set is PBRM1 BD2 SKY_AAA (UniProt Q86U86 178-291, S275A;K277A;Y281A). The data set is described as above. The note with it: protein: recombinant; tags: His tag, TEV-cleaved; hairpin, UUCG loop.
In a further data set the target is PBRM1 BD4 KRK_AAA (UniProt Q86U86 496-637, K511A;R512A;K513A). The data set is described as above. The note with it: protein: recombinant; tags: His tag, TEV-cleaved; hairpin, UUCG loop.

As a reminder, the Kd is a measure of binding affinity in units of concentration.

T1 sequence (Q86U86 496-637): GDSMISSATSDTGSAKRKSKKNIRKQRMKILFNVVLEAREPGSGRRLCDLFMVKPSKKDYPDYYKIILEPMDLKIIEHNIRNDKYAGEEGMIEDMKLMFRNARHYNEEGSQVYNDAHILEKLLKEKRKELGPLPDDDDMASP
T2 sequence (Q86U86 178-291): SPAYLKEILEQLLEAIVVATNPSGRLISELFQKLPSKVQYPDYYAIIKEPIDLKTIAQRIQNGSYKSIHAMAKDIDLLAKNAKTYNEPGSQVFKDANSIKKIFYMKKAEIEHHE
PBRM1 BD4 KRK_AAA, sequence (Q86U86 496-637 K511A/R512A/K513A): as the sequence (Q86U86 496-637) above, with K16A, R17A, K18A counted along it
PBRM1 BD2 SKY_AAA, sequence (Q86U86 178-291 S275A/K277A/Y281A): as the sequence (Q86U86 178-291) above, with S98A, K100A, Y104A counted along it

In the case of GGCAUCGUGCAUCAGAAUGGCACGAUGCC (structured_RNA) [dsRNAIII stem-loop], the binding result in the data set with PBRM1 BD4 [1] (hairpin) and with PBRM1 BD2 [2] was “binds” each time.

B1: dsRNAIV (no loop) (dsRNA)
RNA 1: GGCAUCGUGC
RNA 2: GCACGAUGCC
Consider B1, for which, in the data set with PBRM1 BD4 [1] (blunt), the binding result is listed as “binds”.

For UUUUUUUUUUUUU (ssRNA) [ssRNAI poly-U 13 nt], the Kd was 320 ± 140 µM with PBRM1 BD4 [3] and 350 ± 80 µM with PBRM1 BD2 [4].

GCGUAGACAGCUGUUCGCAGCUGUCUACGC (structured_RNA) [dsRNAI stem-loop 30 nt]: the Kd with PBRM1 BD2 SKY_AAA came out at 200 ± 70 µM; with PBRM1 BD4 [3] (hairpin, UUCG loop), 120 ± 20 µM; with PBRM1 BD2 [4] (hairpin, UUCG loop), 25 ± 8 µM; with PBRM1 BD4 KRK_AAA it was 1020 ± 40 µM.

Turning to CGTAGACAGCT (ssDNA) [ssDNA], the results for the Kd with PBRM1 BD4 [3] and with PBRM1 BD2 [4] were 2970 ± 140 µM and 130 ± 30 µM, respectively.

B2: dsDNA 11 bp (dsDNA)
DNA 1: CGTAGACAGCT
DNA 2: AGCTGTCTACG
In the case of B2, the Kd with PBRM1 BD4 [3] (blunt) worked out at 500 ± 270 µM; in the data set with PBRM1 BD2 [4] (blunt) it was 910 ± 380 µM.

As to GGCAUCGUGCUUCGGCACGAUGCC (structured_RNA) [dsRNAII stem-loop], the binding result is “binds” in the data set with PBRM1 BD4 [1] (hairpin, UUCG loop) and “binds” in the data set with PBRM1 BD2 [2] (UUCG loop).

For the origin of these results see PMC10164552, “PBRM1 bromodomains associate with RNA to facilitate chromatin association”.
